Source: patent publication US20120316071A1 (published 2012)

Columns and labels:
[1] = target: T1, Recombinant Human DLL4 (delta-like protein 4) (human, UniProt Q9NR61 27-529); experiment: ECL (MSD) multispot assay; Fab 0.1 µM
T1 construct: Bought recombinant protein (R&D Systems Cat#1506-D4/CF); also called rHuman DLL4; Delta-like 4

[2] = target: T1, Recombinant Human DLL4 (delta-like …); experiment: ECL (MSD) multispot assay; Fab 0.01 µM
[3] = target: T1, Recombinant Human DLL4 (delta-like …); experiment: ECL (MSD) 96-well plate assay; plate coated with 15 µg/mL DLL4; Fab 0.004 µM
[4] = target: T1, Recombinant Human DLL4 (delta-like …); experiment: ECL (MSD) 96-well plate assay; plate coated with 30 µg/mL DLL4; Fab 0.02 µM
[5] = target: T2, rHuman CD44/Fc Chimera, CF (R&D Systems Cat#3660-CD) (human, UniProt P16070 21-220); experiment: ECL Multispot (MSD), antigen spotted on plate, Fab 0.1 uM;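 also: ratio compares each antigen's electrochemiluminescence to the blank within the same well, with a ratio of at least 4 counted as a binding Fab hit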
T2 construct: Bought recombinant Fc chimera; not shown: Fc of the bought R&D Systems chimera

[6] = target: T3, rHuman IGF-1 sR, CF (R&D Systems Cat#391-GR) (human, UniProt P08069 31-932); experiment: as above
T3 construct: Bought recombinant soluble receptor; also called insulin-like growth factor-1 soluble receptor

[7] = target: T4, rHuman HGF R/c-MET/Fc Chimera, CF (R&D Systems Cat#358-MT/CF) (human, UniProt P08581 25-932); experiment: as above
T4 construct: Bought recombinant Fc chimera; also called HGF R/Fc; not shown: Fc of the bought R&D Systems chimera

[8] = target: T5, rHuman P-Cadherin/Fc Chimera, CF (R&D Systems Cat#861-PC) (human, UniProt P22223 108-654); experiment: as above
T5 construct: Bought recombinant Fc chimera; not shown: Fc of the bought R&D Systems chimera

[9] = target: T6, rHuman EGF R/Fc Chimera, CF (R&D Systems Cat#344-ER) (human, UniProt P00533 25-645); experiment: as above
T6 construct: Bought recombinant Fc chimera; not shown: Fc of the bought R&D Systems chimera

[10] = target: T7, Recombinant Human DLL4 (R&D Systems Cat#1506-D4/CF) (human, UniProt Q9NR61 27-524); experiment: as above
T7 construct: Bought recombinant protein; also called delta-like protein 4; rHuman DLL4

[11] = target: T8, rHuman Erythropoietin R/Fc Chimera, CF (R&D Systems Cat#963-ER) (human, UniProt P19235 25-250); experiment: as above
T8 construct: Bought recombinant Fc chimera; also called EPO R; EPO R/Fc; not shown: Fc of the bought R&D Systems chimera
T8 sequence (looked up): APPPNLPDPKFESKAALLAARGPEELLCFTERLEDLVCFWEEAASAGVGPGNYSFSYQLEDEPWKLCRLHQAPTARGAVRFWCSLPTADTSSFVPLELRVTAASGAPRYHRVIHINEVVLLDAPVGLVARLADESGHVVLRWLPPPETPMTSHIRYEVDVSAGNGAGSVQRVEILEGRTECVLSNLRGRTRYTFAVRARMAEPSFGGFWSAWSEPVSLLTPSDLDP

[12] = target: T9, rHuman ErbB2/Fc Chimera, CF (R&D Systems Cat#1129-ER) (human, UniProt P04626 23-652); experiment: as above
T9 construct: Bought recombinant Fc chimera; not shown: Fc of the bought R&D Systems chimera

[13] = target: T10, rHuman Notch-1/Fc Chimera, CF (R&D Systems Cat#3647-TK) (human, UniProt P46531 19-526); experiment: as above
T10 construct: Bought recombinant Fc chimera; not shown: Fc of the bought R&D Systems chimera

[14] = target: T3, rHuman IGF-1 sR, CF (R&D Systems …); experiment: ECL Multispot (MSD), antigen spotted on plate, Fab 0.01 uM;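 also: electrochemiluminescence of each antigen spot divided by the blank of the same well, with a value of 4 or above scoring the Fab as a binding hit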
[15] = target: T4, rHuman HGF R/c-MET/Fc Chimera, CF (R&D …); experiment: as above
[16] = target: T6, rHuman EGF R/Fc Chimera, CF (R&D …); experiment: as above
[17] = target: T7, Recombinant Human DLL4 (R&D Systems …); experiment: as above
[18] = target: T11, Recombinant Human DLL4 (R&D Systems Cat#1506-D4/CF) (human, UniProt Q9NR61 27-524); experiment: ECL (MSD) binding assay, DLL4 signal divided by blank, repeat experiment
T11 construct: Bought recombinant protein; also called delta-like protein 4; rHuman DLL4

[19] = target: T12, rHuman CD44/Fc Chimera, CF (R&D Systems Cat#3660-CD) (human, UniProt P16070 21-220); experiment: ECL Multispot (MSD) assay, antigen spotted on plate, 10 nM Fab;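 also: purified Fab bound to antigen spots for 1 h at 20 °C, then TAG detection antibody, electrochemiluminescence compared with each well's blank, ratio of 4 or more marks a hit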
T12 construct: Bought recombinant protein

[20] = target: T13, rHuman IGF-1 sR (insulin-like growth factor-1 soluble receptor), CF (R&D Systems Cat#391-GR) (human, UniProt P08069 31-932); experiment: as above
T13 construct: Bought recombinant soluble receptor

[21] = target: T14, rHuman Erythropoietin R/Fc Chimera, CF (R&D Systems Cat#963-ER) (human, UniProt P19235 25-250); experiment: as above
T14 construct: Bought recombinant protein; also called EPO R; EPO R/Fc
T14 sequence (looked up): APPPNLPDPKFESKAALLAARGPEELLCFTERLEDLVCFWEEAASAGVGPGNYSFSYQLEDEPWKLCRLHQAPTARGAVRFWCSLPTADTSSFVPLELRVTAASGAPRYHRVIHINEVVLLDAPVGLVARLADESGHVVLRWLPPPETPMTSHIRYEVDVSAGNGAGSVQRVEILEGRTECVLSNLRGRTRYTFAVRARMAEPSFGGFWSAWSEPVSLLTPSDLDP

[22] = target: T15, rHuman HGF R/c-MET/Fc Chimera, CF (R&D Systems Cat#358-MT/CF) (human, UniProt P08581 25-932); experiment: as above
T15 construct: Bought recombinant protein; also called HGF R/Fc

[23] = target: T16, rHuman ErbB2/Fc Chimera, CF (R&D Systems Cat#1129-ER) (human, UniProt P04626 23-652); experiment: as above
T16 construct: Bought recombinant protein

[24] = target: T17, rHuman EGF R/Fc Chimera, CF (R&D Systems Cat#344-ER) (human, UniProt P00533 25-645); experiment: as above
T17 construct: Bought recombinant protein

[25] = target: T11, Recombinant Human DLL4 (R&D Systems …); experiment: as above
[26] = target: T18, rHuman P-Cadherin/Fc Chimera, CF (R&D Systems Cat#861-PC) (human, UniProt P22223 108-654); experiment: as above
T18 construct: Bought recombinant protein

[27] = target: T19, rHuman Notch-1/Fc Chimera, CF (R&D Systems Cat#3647-TK) (human, UniProt P46531 19-526); experiment: as above
T19 construct: Bought recombinant protein

[28] = target: T11, Recombinant Human DLL4 (R&D Systems …); experiment: ECL (MSD) binding assay, immobilised DLL4, repeat experiment

Binder	Signal/Noise [18]	ECL signal [19]	ECL signal [20]	ECL signal [21]	ECL signal [22]	ECL signal [23]	ECL signal [24]	ECL signal [25]	ECL signal [26]	ECL signal [27]	ECL signal [28]	further results
Fab VH1-46_IGHD6-6*01_IGHJ1*01 S104F & L6_IGKJ1*01 (Fab, V domains shown, Fab; The VH was cloned into Plasmid A (CH1, His6 and Flag tags) and the kappa VL into Plasmid C (kappa CL); expressed in E. coli) VH: QVQLVQSGAEVKKPGASVKVSCKASGYTFTSYYMHWVRQAPGQGLEWMGIINPSGGSTSYAQKFQGRVTMTRDTSTSTVYMELSSLRSEDTAVYYCAREEYSSFSAEYFQHWGQGTLVTVSS VL: not shown												ECL signal [1]: 27100; Signal/Noise [1]: 195; ECL signal [2]: 4280; Signal/Noise [2]: 15.3; Signal/Noise [3]: 134; Signal/Noise [4]: 76.5
Fab VH1-46_IGHD6-6*01_IGHJ1*01 S104H & L6_IGKJ1*01 (Fab, V domains shown, Fab; The VH was cloned into Plasmid A (CH1, His6 and Flag tags) and the kappa VL into Plasmid C (kappa CL); expressed in E. coli) VH: QVQLVQSGAEVKKPGASVKVSCKASGYTFTSYYMHWVRQAPGQGLEWMGIINPSGGSTSYAQKFQGRVTMTRDTSTSTVYMELSSLRSEDTAVYYCAREEYSSHSAEYFQHWGQGTLVTVSS VL: not shown												ECL signal [1]: 20100; Signal/Noise [1]: 88.3; ECL signal [2]: 4160; Signal/Noise [2]: 27; Signal/Noise [3]: 79.2; Signal/Noise [4]: 24.9
Fab VH1-46_IGHD6-6*01_IGHJ1*01 & L6_IGKJ1*01 (Fab, V domains shown, Germline 'Hit' Fab made in E. coli; The heavy chain variable region was cloned into Plasmid A (CH1, His6 and Flag tags) and the kappa light chain variable region into Plasmid C (kappa CL); also called Parent; parental) VH: QVQLVQSGAEVKKPGASVKVSCKASGYTFTSYYMHWVRQAPGQGLEWMGIINPSGGSTSYAQKFQGRVTMTRDTSTSTVYMELSSLRSEDTAVYYCAREEYSSSSAEYFQHWGQGTLVTVSS VL: not shown												ECL signal/noise ratio [5]: 1.8; ECL signal/noise ratio [6]: 1.6; ECL signal/noise ratio [7]: 1.3; ECL signal/noise ratio [8]: 1.6; ECL signal/noise ratio [9]: 1.2; ECL signal/noise ratio [10]: 40.9; ECL signal/noise ratio [11]: 1.2; ECL signal/noise ratio [12]: 1.2; ECL signal/noise ratio [13]: 1.7
Fab VH1-46_IGHD6-6*01_IGHJ1*01 S104F & L6_IGKJ1*01 (Fab, V domains shown, Fab made in E. coli; The heavy chain variable region was cloned into Plasmid A (CH1, His6 and Flag tags) and the kappa light chain variable region into Plasmid C (kappa CL)) VH: QVQLVQSGAEVKKPGASVKVSCKASGYTFTSYYMHWVRQAPGQGLEWMGIINPSGGSTSYAQKFQGRVTMTRDTSTSTVYMELSSLRSEDTAVYYCAREEYSSFSAEYFQHWGQGTLVTVSS VL: not shown												ECL signal/noise ratio [14]: 0.6; ECL signal/noise ratio [15]: 0.6; ECL signal/noise ratio [16]: 0.8; ECL signal/noise ratio [17]: 15.3; ECL signal/noise ratio [6]: 1.7; ECL signal/noise ratio [7]: 1.6; ECL signal/noise ratio [9]: 2; ECL signal/noise ratio [10]: 195
Fab VH1-46_IGHD6-6*01_IGHJ1*01 S102A/S103P/S104F/H111F S31A & L6_IGKJ1*01 (Fab, V domains shown, Fab as for m1 (CH1 with His6/Flag tags, kappa CL); also called APFF S31A) VH: QVQLVQSGAEVKKPGASVKVSCKASGYTFTAYYMHWVRQAPGQGLEWMGIINPSGGSTSYAQKFQGRVTMTRDTSTSTVYMELSSLRSEDTAVYYCAREEYAPFSAEYFQFWGQGTLVTVSS VL: not shown	530	379	405	454	398	207	394	138000	255	333	176000	
Fab VH1-46_IGHD6-6*01_IGHJ1*01 S102A/S103P/S104F/H111F T28A & L6_IGKJ1*01 (Fab, V domains shown, Fab as for m1 (CH1 with His6/Flag tags, kappa CL); also called APFF T28A) VH: QVQLVQSGAEVKKPGASVKVSCKASGYAFTSYYMHWVRQAPGQGLEWMGIINPSGGSTSYAQKFQGRVTMTRDTSTSTVYMELSSLRSEDTAVYYCAREEYAPFSAEYFQFWGQGTLVTVSS VL: not shown	404	471	408	480	427	411	389	140000	381	432	181000	
Fab VH1-46_IGHD6-6*01_IGHJ1*01 S102A/S103P/S104F/H111F T30A & L6_IGKJ1*01 (Fab, V domains shown, Fab as for m1 (CH1 with His6/Flag tags, kappa CL); also called APFF T30A) VH: QVQLVQSGAEVKKPGASVKVSCKASGYTFASYYMHWVRQAPGQGLEWMGIINPSGGSTSYAQKFQGRVTMTRDTSTSTVYMELSSLRSEDTAVYYCAREEYAPFSAEYFQFWGQGTLVTVSS VL: not shown	503	439	356	428	413	272	427	140000	275	270	178000	
Fab VH1-46_IGHD6-6*01_IGHJ1*01 S102A/S103P/S104F/H111F Y33A & L6_IGKJ1*01 (Fab, V domains shown, Fab as for m1 (CH1 with His6/Flag tags, kappa CL); also called APFF Y33A) VH: QVQLVQSGAEVKKPGASVKVSCKASGYTFTSYAMHWVRQAPGQGLEWMGIINPSGGSTSYAQKFQGRVTMTRDTSTSTVYMELSSLRSEDTAVYYCAREEYAPFSAEYFQFWGQGTLVTVSS VL: not shown	225	294	308	373	345	394	372	27000	383	244	59500	
